According to patent US9289478B2, “Formulations of tumour-associated peptides binding to human leukocyte antigen (HLA) class I or class II molecules for vaccine” (IMMATICS BIOTECHNOLOGIES GMBH, priority 2008, dated 2016):

Experiments:
Type in all cases: physicochemical
[1] = HPLC-assay for stability of peptides in lyophilised formulation on storage for 3 months (Example 4); details: for stability of peptides in formulation, 1 M: 1 month; for stability of peptides in formulation, 2 M: 2 months; for stability of peptides in formulation, 3 M: 3 months
Experimental: (§1) Identity, purity and peptide content are determined by analytical RP-HPLC chromatography. Detection wavelength was 220 nm.

[2] = HPLC-assay for in-use stability after reconstitution with 4.2% sodium hydrogen carbonate solution (Example 3, peptides SEQ ID NO 11-23)
Experimental: For clinical trials the above described formulation is dissolved in 700 μl sodium hydrogen carbonate (4.2%). To dissolve the lyophilisate, the vial and the diluent shall be shaken vigorously for 1 minute, check whether solution is clear, otherwise continue shaking for another minute until the solution is clear. Administration of 500 μL of the solution has to occur within 1 h after reconstitution. Dissolved lyophilisate may be stored aseptically at room temperature for up to 1 hour following reconstitution.
as §1

[3] = HPLC-assay for in-use stability after reconstitution with 4.2% sodium hydrogen carbonate solution (Example 2, peptides SEQ ID NO 1-10)
Experimental: Resolubilization procedure: For clinical trials the above described formulation is dissolved in 700 μl sodium hydrogen carbonate (4.2%). Remove plastic cap from one vial. Unpack and remove sodium hydrogen carbonate (4.2%) from the refrigerator at least 30 min before resolubilization to bring them up to room temperature before injection. Prepare syringe and needle for reconstitution. Use aseptic technique to take 700 μL of diluent for reconstitution of the lyophilisate. To dissolve the lyophilisate, the vial and the diluent shall be shaken vigorously for 1 minute, check whether solution is clear, otherwise continue shaking for another minute until the solution is clear. 10 to 30 minutes after GM-CSF injection, use a new syringe to administer 500 μL reconstituted formulation i.d. at the same site. Administration has to occur within 1 h after reconstitution. Dissolved lyophilisate may be stored aseptically at room temperature for up to 1 hour following reconstitution.
However, a decrease of two specific peptides, i.e. IMA-CCN-001 and IMA-RGS-001 took place (see Table 6). As these peptides contain a cysteine residue, time-depending dimerization takes place.
as §1

[4] = +mannitol/lutrol, 1 h after reconstitution
[5] = +mannitol/lutrol, 2 h after reconstitution
[6] = +mannitol/lutrol, 3 h after reconstitution
[7] = +mannitol/lutrol, 4 h after reconstitution
[8] = +mannitol/lutrol, 5 h after reconstitution
[9] = +mannitol/lutrol, 6 h after reconstitution
[10] = +mannitol/lutrol, Initial (starting value set to 100%)
[11] = no excipients, 1 h after reconstitution
[12] = no excipients, 2 h after reconstitution
[13] = no excipients, 3 h after reconstitution
[14] = no excipients, Initial (starting value set to 100%)

Row | Sequence | stability of peptides in formulation, 1 M ([1]; +5° C. +/- 3° C.) | stability of peptides in formulation, 2 M ([1]; +5° C. +/- 3° C.) | stability of peptides in formulation, 3 M ([1]; +5° C. +/- 3° C.) | stability of peptides in formulation, INITIAL ([1]; +5° C. +/- 3° C.) | stability of peptides in formulation, 1 M ([1]; +25° C. +/- 2° C.) | stability of peptides in formulation, 2 M ([1]; +25° C. +/- 2° C.) | stability of peptides in formulation, 3 M ([1]; +25° C. +/- 2° C.) | stability of peptides in formulation, INITIAL ([1]; +25° C. +/- 2° C.) | stability of peptides in formulation, 1 M ([1]; -20° C. +/- 5° C.) | in-use stability, peptide by HPLC-assay [3, 4] | in-use stability, peptide by HPLC-assay [3, 5] | in-use stability, peptide by HPLC-assay [3, 6] | in-use stability, peptide by HPLC-assay [3, 7] | in-use stability, peptide by HPLC-assay [3, 8] | in-use stability, peptide by HPLC-assay [3, 9] | in-use stability, peptide by HPLC-assay [3, 10] | in-use stability, peptide by HPLC-assay [3, 11] | in-use stability, peptide by HPLC-assay [3, 12] | in-use stability, peptide by HPLC-assay [3, 13] | in-use stability, peptide by HPLC-assay [3, 14] | further results
1 | AIIDGVESV (listed as Homo sapiens) [PTP-003, Protein tyrosine phosphatase, receptor-type, Z polypeptide 1 peptide] | 99.07 % of Initial | 97.95 % of Initial | 98.68 % of Initial | 100.0% | 98.29 % of Initial | 97.11 % of Initial | 98.29 % of Initial | 100.0% | 99.11 % of Initial |  |  |  |  |  |  |  |  |  |  |  | stability of peptides in formulation, 2 M ([1]; -20° C. +/- 5° C.): 97.48 % of Initial; stability of peptides in formulation, 3 M ([1]; -20° C. +/- 5° C.): 98.57 % of Initial; stability of peptides in formulation, INITIAL ([1]; -20° C. +/- 5° C.): 100.0%; in-use stability, Peptide [%] ([2]; +Mannitol/Lutrol, 2h): 100.3%; in-use stability, Peptide [%] ([2]; +Mannitol/Lutrol, 4h): 100.5%; in-use stability, Peptide [%] ([2]; +Mannitol/Lutrol, 6h): 100.1%; in-use stability, Peptide [%] ([2]; +Mannitol/Lutrol, Initial): 100.0%; in-use stability, Peptide [%] ([2]; no excipients, 2h): 100.4%; in-use stability, Peptide [%] ([2]; no excipients, 4h): 100.9%; in-use stability, Peptide [%] ([2]; no excipients, 6h): 96.1%; in-use stability, Peptide [%] ([2]; no excipients, Initial): 100.0%
2 | ALADGVQKV (listed as Homo sapiens) [APO-001, Apolipoprotein L1 tumour-associated peptide] |  |  |  |  |  |  |  |  |  | 99.8% | 99.8% | 100.7% | 100.9% | 99.6% | 101.5% | 100.0% | 100.0% | 97.4% | 97.4% | 100.0% | 
3 | ALFDGDPHL (listed as Homo sapiens) [K67-001, KIAA0367 tumour-associated peptide] |  |  |  |  |  |  |  |  |  | 99.8% | 100.4% | 101.6% | 101.8% | 100.6% | 102.5% | 100.0% | 100.8% | 99.2% | 97.5% | 100.0% | 
4 | ALWAWPSEL (listed as Homo sapiens) [BCA-002, Brevican tumour-associated peptide] | 99.13 % of Initial | 98.04 % of Initial | 98.73 % of Initial | 100.0% | 98.20 % of Initial | 97.05 % of Initial | 97.88 % of Initial | 100.0% | 99.17 % of Initial |  |  |  |  |  |  |  |  |  |  |  | stability of peptides in formulation, 2 M ([1]; -20° C. +/- 5° C.): 97.61 % of Initial; stability of peptides in formulation, 3 M ([1]; -20° C. +/- 5° C.): 98.61 % of Initial; stability of peptides in formulation, INITIAL ([1]; -20° C. +/- 5° C.): 100.0%; in-use stability, Peptide [%] ([2]; +Mannitol/Lutrol, 2h): 99.8%; in-use stability, Peptide [%] ([2]; +Mannitol/Lutrol, 4h): 99.6%; in-use stability, Peptide [%] ([2]; +Mannitol/Lutrol, 6h): 98.9%; in-use stability, Peptide [%] ([2]; +Mannitol/Lutrol, Initial): 100.0%; in-use stability, Peptide [%] ([2]; no excipients, 2h): 99.9%; in-use stability, Peptide [%] ([2]; no excipients, 4h): 100.1%; in-use stability, Peptide [%] ([2]; no excipients, 6h): 95.4%; in-use stability, Peptide [%] ([2]; no excipients, Initial): 100.0%
5 | AMTQLLAGV (listed as Homo sapiens) [TNC-001, Tenascin C peptide] | 99.02 % of Initial | 98.10 % of Initial | 98.72 % of Initial | 100.0% | 97.86 % of Initial | 96.80 % of Initial | 97.21 % of Initial | 100.0% | 99.01 % of Initial |  |  |  |  |  |  |  |  |  |  |  | stability of peptides in formulation, 2 M ([1]; -20° C. +/- 5° C.): 97.61 % of Initial; stability of peptides in formulation, 3 M ([1]; -20° C. +/- 5° C.): 98.57 % of Initial; stability of peptides in formulation, INITIAL ([1]; -20° C. +/- 5° C.): 100.0%; in-use stability, Peptide [%] ([2]; +Mannitol/Lutrol, 2h): 100.5%; in-use stability, Peptide [%] ([2]; +Mannitol/Lutrol, 4h): 100.6%; in-use stability, Peptide [%] ([2]; +Mannitol/Lutrol, 6h): 100.2%; in-use stability, Peptide [%] ([2]; +Mannitol/Lutrol, Initial): 100.0%; in-use stability, Peptide [%] ([2]; no excipients, 2h): 100.0%; in-use stability, Peptide [%] ([2]; no excipients, 4h): 100.4%; in-use stability, Peptide [%] ([2]; no excipients, 6h): 95.7%; in-use stability, Peptide [%] ([2]; no excipients, Initial): 100.0%
6 | LLGATCMFV (listed as Homo sapiens) [CCN-001, Cyclin D1 tumour-associated peptide] |  |  |  |  |  |  |  |  |  | 95.6% | 92.2% | 91.3% | 89.2% | 86.1% | 85.9% | 100.0% | 82.8% | 72.1% | 63.3% | 100.0% | stability after reconstitution (in words) ([3]; Example 2 formulation, 4.2% sodium hydrogen carbonate): decrease
7 | SQDDIKGIQKLYGKRS (listed as Homo sapiens) [MMP-001, Matrix metalloproteinase 7 tumour-associated peptide] |  |  |  |  |  |  |  |  |  | 99.5% | 99.3% | 100.2% | 100.4% | 98.9% | 100.9% | 100.0% | 98.6% | 97.1% | 95.7% | 100.0% | 
8 | SVFAGVVGV (listed as Homo sapiens) [GUC-001, GUCY1A3 tumour-associated peptide] |  |  |  |  |  |  |  |  |  | 99.7% | 99.5% | 100.6% | 100.8% | 99.7% | 101.6% | 100.0% | 100.0% | 100.0% | 98.6% | 100.0% | 
9 | VMAGDIYSV (listed as Homo sapiens) [ADF-002, Adipophilin tumour-associated peptide] |  |  |  |  |  |  |  |  |  | 99.9% | 100.0% | 101.1% | 101.2% | 99.9% | 101.9% | 100.0% | 100.9% | 100.0% | 97.2% | 100.0% | 
10 | YVDPVITSI (listed as Homo sapiens) [MET-001, c-met proto-oncogene tumour-associated peptide] |  |  |  |  |  |  |  |  |  | 99.8% | 99.8% | 101.0% | 101.1% | 99.8% | 101.7% | 100.0% | 100.0% | 99.2% | 96.7% | 100.0% | 
